# Measured values as given in publication PMC10720262 (Cell Reports, 2023).
# B1: mAb CIS43 (antibody, V domains shown)
# VH: QVQLVQSGAEVKKPGASVKVSCKASGYTFTSYAIHWVRQAPGQRLEWMGWIKAGNGNTRYSQKFQDRVTITRDTSTTTAYMELSSLRSEDTAVYYCALLTVLTPDDAFDIWGQGTMVTVSS
# VL: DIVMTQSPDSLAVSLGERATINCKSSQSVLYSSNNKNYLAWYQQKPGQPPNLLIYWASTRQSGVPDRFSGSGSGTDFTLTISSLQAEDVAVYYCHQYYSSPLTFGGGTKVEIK
# notes: also called CIS4317 (label with citation mark 17)
# B2: mAb 2541 (antibody, V domains shown)
# VH: QVQLVESGGGVVQPGRSLRLSCAASGFTFSSYGMHWVRQTTGKGLEWVAIIWHDGSKKYYADSVKGRLTISRDNSKNTLYLQMNSLRVEDTALYYCARVGDYSDFKYGAFDIWGQGTMVTVSS
# VL: DIQMTQSPSTLSASVGDRVTITCRASQSISSWLAWYQQKPGKAPNLLIYKASTLESGVPSRFSGSGSGTEFTLTISSLQPDDFATYYCQQYNSYWTFGQGTRVEIK
# notes: also called 254121 (label with citation mark 21)
# B3: mAb 317 (antibody, V domains shown)
# VH: QMQLVESGGGVVQPGRSLRLSCTASGFTFSTYAMHWVRQSPGQGLQWVAVISYHSTNKYYEDSVRGRFTISRDNSKNTLYLQMNSLRAEDTAVYYCARDGYSSSFFDFWGQGTLVTVSS
# VL: DIQMTQSPSTLSASVGDRVAITCRASQSISRWLAWYQQQPGKAPKLLMSGASVLESGVPSRFSGSGSGTEFTLTISSLQPDDFATYYCQHYNSYFVTFGQGTKVEIK
# notes: also called 31715 (label with citation mark 15)
# Legend:
# [1] = biological target: T1, recombinant full-length PfCSP (strain NF54) (Plasmodium falciparum NF54, UniProt P19597); experiment: BLI; Octet RED96; His-tagged PfCSP on Ni-NTA biosensors, 2-fold dilutions of mAb; PBS pH 7.4, 0.01% BSA, 0.002% Tween 20; 1:1 binding model; settings: both partners purified
# T1 construct: also called NF54 PfCSP; Pf circumsporozoite protein; not shown: His tag, C-terminal, kept
# T1 sequence (P19597 20-375): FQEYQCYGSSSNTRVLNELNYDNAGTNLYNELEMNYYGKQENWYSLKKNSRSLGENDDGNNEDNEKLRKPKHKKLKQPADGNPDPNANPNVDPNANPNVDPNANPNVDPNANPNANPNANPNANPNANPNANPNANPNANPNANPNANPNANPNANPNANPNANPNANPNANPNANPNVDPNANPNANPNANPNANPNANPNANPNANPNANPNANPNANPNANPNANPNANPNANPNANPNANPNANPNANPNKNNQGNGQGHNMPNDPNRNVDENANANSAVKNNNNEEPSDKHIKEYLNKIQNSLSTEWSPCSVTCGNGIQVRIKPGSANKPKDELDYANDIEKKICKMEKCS
# NANP6 peptide = biological target: T2, NANP6 peptide (Plasmodium falciparum NF54); experiment: SPR; Carterra LSA; mAb amine-coupled to a CMD200M chip, peptide titrated in 2-fold steps up to 8 ug/mL without regeneration; 25 C; HBSTE (10 mM HEPES pH 7.4, 150 mM NaCl, 3 mM EDTA, 0.01% Tween 20); 1:1 Langmuir model; mean of triplicates; KD includes avidity for antigens with several repeats; settings: both partners purified
# T2 construct: source: synthetic peptide (CPC Scientific)
Binder,kon [1] [M⁻¹ s⁻¹],Kd (NANP6 peptide) [nM],koff (NANP6 peptide) [s⁻¹],kon (NANP6 peptide) [M⁻¹ s⁻¹]
B1,444000,54.9,0.00974,179000
B2,71000,≤ 0.133,≤ 1e-05,86600
B3,27200,0.404,0.000118,292000
